From paper PMC9482650, “Quantitative fragmentomics allow affinity mapping of interactomes” (Nature Communications, 2022)

What was measured:
Test in all cases: holdup assay
Parameters in all cases: key: below the threshold = too weak to quantify, mostly under pKd 3.1 to 4
[1] = molecular target: MAST1, Q9Y2H9
[2] = molecular target: T1, GRIP1_7, Q9Y3R0
T1 sequence (Q9Y3R0 999-1096, limits assumed, looked up): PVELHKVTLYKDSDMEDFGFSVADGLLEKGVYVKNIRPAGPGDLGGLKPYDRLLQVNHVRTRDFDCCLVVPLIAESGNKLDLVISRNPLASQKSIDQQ

[3] = molecular target: Inadl_6, Q8NI35
[4] = molecular target: T2, GRIP1_3, Q9Y3R0
T2 sequence (Q9Y3R0 247-346, limits assumed, looked up): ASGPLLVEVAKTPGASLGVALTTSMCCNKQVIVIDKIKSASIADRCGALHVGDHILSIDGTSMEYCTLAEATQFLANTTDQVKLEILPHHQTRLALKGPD

[5] = molecular target: MAGI2_5, Q86UL8
[6] = molecular target: PTPN3, P26045
[7] = molecular target: DLG1_2, Q12959
[8] = molecular target: MAGI1_2, Q96QZ7
[9] = molecular target: DLG4_3, P78352
[10] = molecular target: SCRIB_3, Q14160
[11] = molecular target: T3, RHPN1, Q8TCX5
T3 sequence (Q8TCX5 508-602, limits assumed, looked up): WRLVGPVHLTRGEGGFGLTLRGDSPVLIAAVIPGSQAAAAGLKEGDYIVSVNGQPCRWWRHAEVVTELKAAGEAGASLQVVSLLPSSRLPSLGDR

[12] = molecular target: MAGI2_3, Q86UL8
[13] = molecular target: T4, LNX2_3, Q8N448
T4 sequence (Q8N448 463-564, limits assumed, looked up): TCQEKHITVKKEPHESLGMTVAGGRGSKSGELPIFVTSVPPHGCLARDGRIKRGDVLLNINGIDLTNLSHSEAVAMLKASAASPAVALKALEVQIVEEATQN

[14] = molecular target: TJP2_1, Q9UDY2
[15] = molecular target: T5, DFNB31_3, Q9P202
T5 sequence (Q9P202 811-907, limits assumed, looked up): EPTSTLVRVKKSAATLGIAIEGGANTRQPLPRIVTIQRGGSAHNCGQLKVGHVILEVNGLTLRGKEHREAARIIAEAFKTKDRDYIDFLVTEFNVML

[16] = molecular target: Inadl_10, Q8NI35
[17] = molecular target: T6, DVL3, Q92997
T6 sequence (Q92997 244-331, limits assumed, looked up): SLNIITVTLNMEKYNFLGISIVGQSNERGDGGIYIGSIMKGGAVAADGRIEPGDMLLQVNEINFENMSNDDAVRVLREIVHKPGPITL

[18] = molecular target: T7, TIAM2, Q8IVF5
T7 sequence (Q8IVF5 885-986, limits assumed, looked up): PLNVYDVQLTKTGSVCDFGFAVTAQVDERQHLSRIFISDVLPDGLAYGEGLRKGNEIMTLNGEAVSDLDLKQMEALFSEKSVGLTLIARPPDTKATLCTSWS

[19] = molecular target: T8, CARD11, Q9BXL7
T8 sequence (Q9BXL7 662-765, limits assumed, looked up): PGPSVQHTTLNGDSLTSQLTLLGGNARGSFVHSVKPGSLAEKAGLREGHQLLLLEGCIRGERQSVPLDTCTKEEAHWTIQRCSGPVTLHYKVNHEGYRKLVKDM

[20] = molecular target: T9, DFNB31_1, Q9P202
T9 sequence (Q9P202 135-233, limits assumed, looked up): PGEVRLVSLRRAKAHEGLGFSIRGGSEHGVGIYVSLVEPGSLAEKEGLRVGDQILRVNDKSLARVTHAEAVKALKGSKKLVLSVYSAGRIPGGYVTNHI

[21] = molecular target: GRID2IP_2, A4D2P6
[22] = molecular target: T10, PCLO, Q9Y6V0
T10 sequence (Q9Y6V0 4491-4600, limits assumed, looked up): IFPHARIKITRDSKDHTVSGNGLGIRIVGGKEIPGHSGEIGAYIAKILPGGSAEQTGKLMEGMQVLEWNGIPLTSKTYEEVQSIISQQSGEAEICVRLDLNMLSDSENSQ

[23] = molecular target: FRMPD3, Q5JV73
[24] = molecular target: DLG1_1, Q12959
[25] = molecular target: T11, DLG3_3, Q92796
T11 sequence (Q92796 374-475, limits assumed, looked up): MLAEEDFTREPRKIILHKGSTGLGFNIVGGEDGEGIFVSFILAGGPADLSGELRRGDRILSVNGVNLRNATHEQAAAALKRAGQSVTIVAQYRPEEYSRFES

[26] = molecular target: NHERF2_2, Q15599
[27] = molecular target: CASK, O14936
[28] = plain residues with an end cap or a label only (N-terminal biotin on a linker: ttds)
[29] = plain residues with an end cap or a label only (N-terminal biotin on a linker: ahx)

MAGI1_2, Q96QZ7, sequence (Q96QZ7 456-580): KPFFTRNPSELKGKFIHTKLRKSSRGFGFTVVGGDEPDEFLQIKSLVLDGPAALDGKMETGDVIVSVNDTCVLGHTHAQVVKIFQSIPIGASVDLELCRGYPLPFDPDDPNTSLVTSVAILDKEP
NHERF2_2, Q15599, sequence (Q15599 142-238): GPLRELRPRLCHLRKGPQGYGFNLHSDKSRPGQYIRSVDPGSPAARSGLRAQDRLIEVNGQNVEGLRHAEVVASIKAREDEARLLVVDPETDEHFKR
GRID2IP_2, A4D2P6, sequence (A4D2P6 272-370): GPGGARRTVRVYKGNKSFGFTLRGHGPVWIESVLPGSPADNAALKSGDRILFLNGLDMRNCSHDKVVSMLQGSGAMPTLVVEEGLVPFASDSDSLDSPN
MAGI2_5, Q86UL8, sequence (Q86UL8 915-1017): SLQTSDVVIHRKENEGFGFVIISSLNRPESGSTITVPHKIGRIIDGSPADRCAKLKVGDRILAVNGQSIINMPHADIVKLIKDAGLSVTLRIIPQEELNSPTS
TJP2_1, Q9UDY2, sequence (Q9UDY2 24-128): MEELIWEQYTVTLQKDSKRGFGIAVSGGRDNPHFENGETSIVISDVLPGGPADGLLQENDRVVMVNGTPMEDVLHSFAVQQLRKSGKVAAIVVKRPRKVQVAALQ
MAGI2_3, Q86UL8, sequence (Q86UL8 600-682): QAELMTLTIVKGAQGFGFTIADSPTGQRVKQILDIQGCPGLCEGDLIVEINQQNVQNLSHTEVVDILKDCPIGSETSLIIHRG
CASK, O14936, sequence (O14936 487-570): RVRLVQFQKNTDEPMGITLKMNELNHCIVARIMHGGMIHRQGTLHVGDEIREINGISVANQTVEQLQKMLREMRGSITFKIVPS
Inadl_6, Q8NI35, sequence (Q8NI35 1058-1167): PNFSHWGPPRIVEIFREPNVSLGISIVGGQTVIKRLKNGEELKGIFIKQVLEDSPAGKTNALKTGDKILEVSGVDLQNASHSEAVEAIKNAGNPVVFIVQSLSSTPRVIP
MAST1, Q9Y2H9, sequence (Q9Y2H9 962-1065): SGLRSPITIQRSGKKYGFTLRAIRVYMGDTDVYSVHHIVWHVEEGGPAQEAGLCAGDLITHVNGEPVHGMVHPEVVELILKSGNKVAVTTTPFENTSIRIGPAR
Inadl_10, Q8NI35, sequence (Q8NI35 1673-1763): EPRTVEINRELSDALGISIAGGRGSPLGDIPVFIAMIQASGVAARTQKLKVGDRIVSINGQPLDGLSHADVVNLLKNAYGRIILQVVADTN
DLG4_3, P78352, sequence (P78352 306-403): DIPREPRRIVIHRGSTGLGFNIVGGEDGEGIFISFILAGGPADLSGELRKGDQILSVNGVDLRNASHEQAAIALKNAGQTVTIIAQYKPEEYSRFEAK
FRMPD3, Q5JV73, sequence (Q5JV73 12-100): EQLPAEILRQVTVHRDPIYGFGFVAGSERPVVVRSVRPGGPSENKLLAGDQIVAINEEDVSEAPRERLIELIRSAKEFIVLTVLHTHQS
PTPN3, P26045, sequence (P26045 505-587): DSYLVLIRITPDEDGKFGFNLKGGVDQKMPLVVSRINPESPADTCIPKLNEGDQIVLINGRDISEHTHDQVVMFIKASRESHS
SCRIB_3, Q14160, sequence (Q14160 999-1103): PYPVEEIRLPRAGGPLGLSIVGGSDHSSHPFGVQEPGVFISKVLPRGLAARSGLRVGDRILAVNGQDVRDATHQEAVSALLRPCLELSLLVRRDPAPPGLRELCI

Q: What does the source list for QFQYAKESYI [TAGAP, Q8N103]?
A: pKd [1, 28]: 3.54; pKd [2, 28]: below the threshold; pKd [3, 28]: 4.06; pKd [4, 28]: below the threshold; pKd [5, 28]: below the threshold; pKd [6, 28]: 4.84; pKd [7, 28]: 4.85; pKd [8, 28]: below the threshold; pKd [9, 28]: 3.55; pKd [10, 28]: 4.67; pKd [11, 28]: 4.68; pKd [12, 28]: below the threshold; pKd [13, 28]: below the threshold; pKd [14, 28]: 4.43; pKd [15, 28]: below the threshold; pKd [16, 28]: below the threshold; pKd [17, 28]: below the threshold; pKd [18, 28]: below the threshold; pKd [19, 28]: below the threshold; pKd [20, 28]: 4.24; pKd [21, 28]: 3.72; pKd [22, 28]: below the threshold; pKd [23, 28]: below the threshold; pKd [24, 28]: 4.16; pKd [25, 28]: 3.57; pKd [26, 28]: below the threshold; pKd [27, 28]: below the threshold

Q: For SRRPRTETQV [HPV31-E6, P17386], which pKd [1, 28] is on record?
A: 4.42

Q: And the pKd [2, 28]?
A: below the threshold

Q: And the pKd [3, 28]?
A: below the threshold

Q: What about the pKd [4, 28] of the same binder?
A: below the threshold

Q: And the pKd [5, 28]?
A: 3.89

Q: And the pKd [6, 28]?
A: 4.66

Q: And the pKd [7, 28]?
A: 5.79

Q: What about the pKd [8, 28] of the same binder?
A: 5.54

Q: And the pKd [9, 28]?
A: 5.1

Q: What about the pKd [10, 28] of the same binder?
A: 4.56

Q: What about the pKd [11, 28] of the same binder?
A: 3.74

Q: What about the pKd [12, 28] of the same binder?
A: 4.1

Q: What about the pKd [13, 28] of the same binder?
A: below the threshold

Q: And the pKd [14, 28]?
A: 3.66

Q: What about the pKd [15, 28] of the same binder?
A: below the threshold

Q: And the pKd [16, 28]?
A: below the threshold

Q: And the pKd [17, 28]?
A: below the threshold

Q: What about the pKd [18, 28] of the same binder?
A: below the threshold

Q: And the pKd [19, 28]?
A: below the threshold

Q: And the pKd [20, 28]?
A: 3.55

Q: And the pKd [21, 28]?
A: below the threshold

Q: What about the pKd [22, 28] of the same binder?
A: below the threshold

Q: And the pKd [23, 28]?
A: below the threshold

Q: And the pKd [24, 28]?
A: 5.16

Q: What about the pKd [25, 28] of the same binder?
A: 5.1

Q: What about the pKd [26, 28] of the same binder?
A: below the threshold

Q: And the pKd [27, 28]?
A: below the threshold

Q: TIVSWPGTFL [LNX1, Q8TBB1] was tested. Which pKd [1, 29] did it give?
A: 4.25

Q: And the pKd [2, 29]?
A: below the threshold

Q: What about the pKd [3, 29] of the same binder?
A: 4.1

Q: What about the pKd [4, 29] of the same binder?
A: below the threshold

Q: What about the pKd [5, 29] of the same binder?
A: below the threshold

Q: What about the pKd [6, 29] of the same binder?
A: 4.52

Q: What about the pKd [7, 29] of the same binder?
A: below the threshold

Q: And the pKd [8, 29]?
A: below the threshold

Q: And the pKd [9, 29]?
A: below the threshold

Q: And the pKd [10, 29]?
A: 4.29

Q: What about the pKd [11, 29] of the same binder?
A: 4.17

Q: And the pKd [12, 29]?
A: below the threshold

Q: And the pKd [13, 29]?
A: below the threshold

Q: What about the pKd [14, 29] of the same binder?
A: below the threshold

Q: And the pKd [15, 29]?
A: below the threshold

Q: And the pKd [16, 29]?
A: 4.25

Q: What about the pKd [17, 29] of the same binder?
A: below the threshold

Q: And the pKd [18, 29]?
A: below the threshold

Q: And the pKd [19, 29]?
A: below the threshold

Q: What about the pKd [20, 29] of the same binder?
A: below the threshold

Q: What about the pKd [21, 29] of the same binder?
A: 4.16

Q: And the pKd [22, 29]?
A: below the threshold

Q: What about the pKd [23, 29] of the same binder?
A: below the threshold

Q: And the pKd [24, 29]?
A: below the threshold

Q: What about the pKd [25, 29] of the same binder?
A: below the threshold

Q: And the pKd [26, 29]?
A: 4.21

Q: What about the pKd [27, 29] of the same binder?
A: below the threshold
